Key:
[1] = target: Albumin on negative control beads (serum albumin, HSA/BSA) (human or bovine); test: Luminex single antigen beads, regular beads (#7), 1:8
[2] = target: HLA-A*0301 (A3) on single antigen beads (human) (UniProt P04439); test: as above
[3] = target: Albumin on negative control beads (serum albumin, HSA/BSA) (human or bovine); test: Luminex, iBead MFI against regular bead MFI, 1:8
[4] = target: HLA-B*4403 (B44) single antigen on Luminex beads (human); test: Luminex single antigen, regular beads (#7), IVIg 1:8
[5] = target: HLA-B*4201 (B42) single antigen on Luminex beads (human); test: as above
[6] = target: HLA-B*4402 (B44) single antigen on Luminex beads (human); test: as above
[7] = target: HLA-B*4701 (B47) single antigen on Luminex beads (human); test: as above
[8] = target: HLA-B*3501 (B35) single antigen on Luminex beads (human); test: as above
[9] = target: HLA-B*3801 (B38) single antigen on Luminex beads (human); test: as above
[10] = target: HLA-B*3701 (B37) single antigen on Luminex beads (human); test: as above
[11] = target: HLA-B*2705 (B27) single antigen on Luminex beads (human); test: as above
[12] = target: HLA-B*3901 (B39) single antigen on Luminex beads (human); test: as above
[13] = target: HLA-B*2708 (B27) single antigen on Luminex beads (human); test: as above
[14] = target: HLA-B*4101 (B41) single antigen on Luminex beads (human); test: as above
[15] = target: HLA-B*4601 (B46) single antigen on Luminex beads (human); test: as above
[16] = target: HLA-B*4006 (B61) single antigen on Luminex beads (human); test: as above
[17] = target: HLA-B*4002 (B61) single antigen on Luminex beads (human); test: as above
[18] = target: HLA-B*4501 (B45) single antigen on Luminex beads (human); test: as above
[19] = target: HLA-B*4001 (B60) single antigen on Luminex beads (human); test: as above
[20] = target: HLA-B*4403 (B44) single antigen on Luminex beads (human); test: Luminex single antigen, iBead vs regular bead, IVIg 1:8
[21] = target: HLA-B*4201 (B42) single antigen on Luminex beads (human); test: as above
[22] = target: HLA-B*4402 (B44) single antigen on Luminex beads (human); test: as above
[23] = target: HLA-B*4701 (B47) single antigen on Luminex beads (human); test: as above
[24] = target: HLA-B*3501 (B35) single antigen on Luminex beads (human); test: as above
[25] = target: HLA-B*3801 (B38) single antigen on Luminex beads (human); test: as above
[26] = target: HLA-B*3701 (B37) single antigen on Luminex beads (human); test: as above
[27] = target: HLA-B*2705 (B27) single antigen on Luminex beads (human); test: as above
[28] = target: HLA-B*4601 (B46) single antigen on Luminex beads (human); test: as above
[29] = target: HLA-B*4006 (B61) single antigen on Luminex beads (human); test: as above
[30] = target: HLA-B*4002 (B61) single antigen on Luminex beads (human); test: as above
[31] = target: HLA-B*4501 (B45) single antigen on Luminex beads (human); test: as above
[32] = target: Albumin on negative control beads (serum albumin, HSA/BSA) (human or bovine); test: Luminex single antigen beads, iBeads (#6), 1:8
[33] = target: HLA-B*4403 (B44) single antigen on Luminex beads (human); test: Luminex single antigen, iBeads (#6), IVIg 1:8
[34] = target: HLA-B*4201 (B42) single antigen on Luminex beads (human); test: Luminex single antigen, iBeads (#6), IVIg 1:8
[35] = target: HLA-B*4402 (B44) single antigen on Luminex beads (human); test: Luminex single antigen, iBeads (#6), IVIg 1:8
[36] = target: HLA-B*4701 (B47) single antigen on Luminex beads (human); test: Luminex single antigen, iBeads (#6), IVIg 1:8
[37] = target: HLA-B*3501 (B35) single antigen on Luminex beads (human); test: Luminex single antigen, iBeads (#6), IVIg 1:8
[38] = target: HLA-B*3801 (B38) single antigen on Luminex beads (human); test: Luminex single antigen, iBeads (#6), IVIg 1:8
[39] = target: HLA-B*3701 (B37) single antigen on Luminex beads (human); test: Luminex single antigen, iBeads (#6), IVIg 1:8
[40] = target: HLA-B*2705 (B27) single antigen on Luminex beads (human); test: Luminex single antigen, iBeads (#6), IVIg 1:8
[41] = target: HLA-B*3901 (B39) single antigen on Luminex beads (human); test: Luminex single antigen, iBeads (#6), IVIg 1:8
[42] = target: HLA-B*2708 (B27) single antigen on Luminex beads (human); test: Luminex single antigen, iBeads (#6), IVIg 1:8
[43] = target: HLA-B*4101 (B41) single antigen on Luminex beads (human); test: Luminex single antigen, iBeads (#6), IVIg 1:8
[44] = target: HLA-B*4601 (B46) single antigen on Luminex beads (human); test: Luminex single antigen, iBeads (#6), IVIg 1:8
[45] = target: HLA-B*4006 (B61) single antigen on Luminex beads (human); test: Luminex single antigen, iBeads (#6), IVIg 1:8
[46] = target: HLA-B*4002 (B61) single antigen on Luminex beads (human); test: Luminex single antigen, iBeads (#6), IVIg 1:8
[47] = target: HLA-B*4501 (B45) single antigen on Luminex beads (human); test: Luminex single antigen, iBeads (#6), IVIg 1:8
[48] = target: HLA-A*0301 (A3) on single antigen beads (human) (UniProt P04439); test: Luminex, iBead MFI against regular bead MFI, 1:8
[49] = target: HLA-B*3901 (B39) single antigen on Luminex beads (human); test: Luminex single antigen, iBead vs regular bead, IVIg 1:8
[50] = target: HLA-B*2708 (B27) single antigen on Luminex beads (human); test: as above
[51] = target: HLA-B*4101 (B41) single antigen on Luminex beads (human); test: as above
[52] = target: HLA-B*4001 (B60) single antigen on Luminex beads (human); test: as above
[53] = target: HLA-A*0301 (A3) on single antigen beads (human) (UniProt P04439); test: Luminex single antigen beads, iBeads (#6), 1:8
[54] = target: HLA-B*4001 (B60) single antigen on Luminex beads (human); test: Luminex single antigen, iBeads (#6), IVIg 1:8

Substance Gamunex-C Lot NKLG1 (IVIg) (antibody) has an MFI [1] of 10800 MFI, an MFI [2] of 0 MFI and a Difference % (iBead against regular bead) [3] of -34%. The MFI [4] was 1110 MFI, the MFI [5] was 455 MFI and the MFI [6] was 6460 MFI. It also gave an MFI [7] of 2550 MFI, an MFI [8] of 1670 MFI and an MFI [9] of 1360 MFI. The MFI [10] was 6130 MFI, the MFI [11] was 388 MFI and the MFI [12] was 0 MFI. For the same substance, the MFI [13] was 0 MFI, the MFI [14] was 716 MFI and the MFI [15] was 3010 MFI. For the same substance, the MFI [16] was 5390 MFI, the MFI [17] was 569 MFI and the MFI [18] was 1110 MFI. It also gave an MFI [19] of 1680 MFI, a Difference % (iBead against regular bead MFI) [20] of 116% and a Difference % (iBead against regular bead MFI) [21] of 139%. It also gave a Difference % (iBead against regular bead MFI) [22] of -71%, a Difference % (iBead against regular bead MFI) [23] of 10% and a Difference % (iBead against regular bead MFI) [24] of -3%. For the same substance, the Difference % (iBead against regular bead MFI) [25] was 1%, the Difference % (iBead against regular bead MFI) [26] was -41% and the Difference % (iBead against regular bead MFI) [27] was 327%. For the same substance, the Difference % (iBead against regular bead MFI) [28] was 17%, the Difference % (iBead against regular bead MFI) [29] was -60% and the Difference % (iBead against regular bead MFI) [30] was 195%. The Difference % (iBead against regular bead MFI) [31] was 91%, the MFI [32] was 7150 MFI and the MFI [33] was 2400 MFI. The MFI [34] was 1090 MFI, the MFI [35] was 1870 MFI and the MFI [36] was 2800 MFI. The MFI [37] was 1610 MFI, the MFI [38] was 1380 MFI and the MFI [39] was 3640 MFI. It also gave an MFI [40] of 1660 MFI, an MFI [41] of 242 MFI and an MFI [42] of 1340 MFI. The MFI [43] was 1490 MFI, the MFI [44] was 3540 MFI and the MFI [45] was 2140 MFI. It also gave an MFI [46] of 1680 MFI and an MFI [47] of 2110 MFI.

In the case of Gamunex-C Lot NKLK1 (IVIg) (antibody), the MFI [1] is reported as 10300 MFI, the MFI [2] is reported as 410 MFI and the Difference % (iBead against regular bead) [3] is reported as -24%. The Difference % (iBead against regular bead) [48] was -151%, the MFI [4] was 1210 MFI and the MFI [6] was 5310 MFI. For the same substance, the MFI [7] was 2030 MFI, the MFI [8] was 1480 MFI and the MFI [9] was 1260 MFI. The MFI [10] was 4790 MFI, the MFI [12] was 0 MFI and the MFI [13] was 0 MFI. For the same substance, the MFI [14] was 605 MFI, the MFI [15] was 2450 MFI and the MFI [16] was 4340 MFI. For the same substance, the MFI [17] was 0 MFI, the MFI [18] was 562 MFI and the Difference % (iBead against regular bead MFI) [20] was -31%. For the same substance, the Difference % (iBead against regular bead MFI) [21] was -100%, the Difference % (iBead against regular bead MFI) [22] was -85% and the Difference % (iBead against regular bead MFI) [23] was -39%. It also gave a Difference % (iBead against regular bead MFI) [24] of -61%, a Difference % (iBead against regular bead MFI) [25] of -100% and a Difference % (iBead against regular bead MFI) [26] of -87%. For the same substance, the Difference % (iBead against regular bead MFI) [27] was -100%, the Difference % (iBead against regular bead MFI) [49] was 0% and the Difference % (iBead against regular bead MFI) [50] was 0%. For the same substance, the Difference % (iBead against regular bead MFI) [51] was -100%, the Difference % (iBead against regular bead MFI) [28] was -65% and the Difference % (iBead against regular bead MFI) [29] was -90%. The Difference % (iBead against regular bead MFI) [30] was 0%, the Difference % (iBead against regular bead MFI) [31] was -29% and the Difference % (iBead against regular bead MFI) [52] was -93%. For the same substance, the MFI [32] was 7800 MFI, the MFI [53] was -211 MFI and the MFI [33] was 836 MFI. It also gave an MFI [34] of 0 MFI, an MFI [35] of 786 MFI and an MFI [37] of 577 MFI. For the same substance, the MFI [38] was 0 MFI, the MFI [39] was 612 MFI and the MFI [40] was 0 MFI. For the same substance, the MFI [41] was 0 MFI, the MFI [42] was 0 MFI and the MFI [43] was 0 MFI. For the same substance, the MFI [44] was 851 MFI, the MFI [45] was 421 MFI and the MFI [46] was 0 MFI. The MFI [47] was 399 MFI and the MFI [54] was 93 MFI.

— patent publication US10800847
